Two substances from publication PMC12388516 can be followed below.

The target of the experiment is bovine thrombin (thrombin reagent) (bovine).

Substance “recombinant hirudin HV1 expressed in E. coli strain SHuffle T7 (natural protein)” yielded a thrombin time (TT) clotting time of human plasma with bovine thrombin; hirudin HV1 at 0.32 and 3.2 µmol/L; expressed at 30 °C; cut-off 300 s of more than 300 s. “recombinant hirudin-like factor HLF1V expressed in E. coli strain SHuffle T7 (natural protein)”: the thrombin time (TT) clotting time of human plasma with bovine thrombin; HLF1V at 0.32 and 3.2 µmol/L; expressed at 30 °C; cut-off 300 s was more than 300 s.
